The source of these data is patent publication US10800813 (Bicycle, dated 2020).

Holding throughout (experiment): enzyme inhibition assay
The target of assay [1] is T1, human plasma Kallikrein (human, UniProt P03952 20-638, limits assumed).
T1 construct: also called hPK; human PK

The target in assay [2] is T1, human plasma Kallikrein. This is another data set of the same source.
Assay [3] deals with T1, human plasma Kallikrein. This is another data set of the same source.
For assay [4], the target named is T1, human plasma Kallikrein. The source holds these as a separate data set.
Assay [5] deals with T1, human plasma Kallikrein. This is another data set of the same source.
In assay [6] the target is T1, human plasma Kallikrein. This is another data set of the same source.

Like-named read-outs stand apart in the source and are kept apart here. Numbered stars: 1 amine (or outer) side, 2 acyl side, 3 side chain; on linkers, the order of the positions; unused ones are H or OH. Bridge positions count the residues as written; N and C are the ends. Square brackets hold non-standard residues; d marks the D form. Ends that are not written are not given here. Phe(4-guanidino) = N=C(N)Nc1ccc(C[C@H](N)C(=O)O)cc1; TBMB = c1c(C[*:1])cc(C[*:3])cc1C[*:2]; NMeR = CN[C@@H](CCCNC(=N)N)C(=O)O; hArg = N=C(N)NCCCC[C@H](N)C(=O)O; Pen = CC(C)(S)[C@H](N)C(=O)O; Dpg = CCCC(N)(CCC)C(=O)O; Aze = O=C(O)[C@@H]1CCN1; Abu = CC[C@H](N)C(=O)O; Aib = CC(C)(N)C(=O)O; βAla = NCCC(=O)O

T1 sequence (P03952 20-638 limits assumed): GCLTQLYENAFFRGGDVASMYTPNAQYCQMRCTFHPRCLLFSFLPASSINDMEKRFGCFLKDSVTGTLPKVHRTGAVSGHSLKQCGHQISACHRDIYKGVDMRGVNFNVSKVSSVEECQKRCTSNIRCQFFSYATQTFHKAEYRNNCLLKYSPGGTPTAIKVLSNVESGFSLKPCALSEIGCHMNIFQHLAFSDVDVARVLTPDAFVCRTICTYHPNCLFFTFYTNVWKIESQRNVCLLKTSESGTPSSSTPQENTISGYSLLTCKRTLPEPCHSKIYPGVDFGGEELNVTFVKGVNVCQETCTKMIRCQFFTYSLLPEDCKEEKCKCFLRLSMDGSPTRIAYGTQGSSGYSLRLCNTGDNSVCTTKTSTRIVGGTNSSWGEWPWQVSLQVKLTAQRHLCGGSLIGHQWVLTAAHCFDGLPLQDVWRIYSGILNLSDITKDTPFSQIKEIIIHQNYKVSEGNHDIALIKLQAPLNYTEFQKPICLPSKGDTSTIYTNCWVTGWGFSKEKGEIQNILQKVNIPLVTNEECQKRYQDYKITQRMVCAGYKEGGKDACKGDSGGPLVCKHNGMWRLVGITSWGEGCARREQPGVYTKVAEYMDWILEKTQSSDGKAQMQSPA

B1: Ac-(06-34-18) D-Arg5 (peptide)
peptide: Ac-CSWPA[dR]CLHQDLC-NH2
modifications: linker 1-7-13 via TBMB
SMILES: CC(=O)N[C@H]1CSCc2cc3cc(c2)CSC[C@H](NC(=O)[C@@H](CCCNC(=N)N)NC(=O)[C@H](C)NC(=O)[C@@H]2CCCN2C(=O)[C@H](Cc2c[nH]c4ccccc24)NC(=O)[C@H](CO)NC1=O)C(=O)N[C@@H](CC(C)C)C(=O)N[C@@H](Cc1c[nH]cn1)C(=O)N[C@@H](CCC(N)=O)C(=O)N[C@@H](CC(=O)O)C(=O)N[C@@H](CC(C)C)C(=O)N[C@H](C(N)=O)CSC3
For B1, in assay [1], the Ki – broadly, a measure of affinity in units of concentration, obtained from inhibition or displacement – was found to be 52 nM. For the same molecule, in assay [2], the “fold loss in potency against Ac-06-34-18(TMB)-NH2” value turned out to be 300 fold.

B2: Ac-(06-34-18) D-Trp2 (peptide)
peptide: Ac-CS[dW]PARCLHQDLC-NH2
modifications: linker 1-7-13 via TBMB
SMILES: CC(=O)N[C@H]1CSCc2cc3cc(c2)CSC[C@H](NC(=O)[C@H](CCCNC(=N)N)NC(=O)[C@H](C)NC(=O)[C@@H]2CCCN2C(=O)[C@@H](Cc2c[nH]c4ccccc24)NC(=O)[C@H](CO)NC1=O)C(=O)N[C@@H](CC(C)C)C(=O)N[C@@H](Cc1c[nH]cn1)C(=O)N[C@@H](CCC(N)=O)C(=O)N[C@@H](CC(=O)O)C(=O)N[C@@H](CC(C)C)C(=O)N[C@H](C(N)=O)CSC3
In the case of B2, affinity in assay [1] was put at a Ki of 7560 nM. Besides, the “fold loss in potency against Ac-06-34-18(TMB)-NH2” value in assay [2] is 45000 fold.

B3: Ac-(06-34-18) Phe2 Aze3Tyr4 NMeArg5 (peptide)
peptide: Ac-CSF[Aze]Y[NMeR]CLHQDLC-NH2
modifications: linker 1-7-13 via TBMB
SMILES: CC(=O)N[C@H]1CSCc2cc3cc(c2)CSC[C@H](NC(=O)[C@H](CCCNC(=N)N)N(C)C(=O)[C@H](Cc2ccc(O)cc2)NC(=O)[C@@H]2CCN2C(=O)[C@H](Cc2ccccc2)NC(=O)[C@H](CO)NC1=O)C(=O)N[C@@H](CC(C)C)C(=O)N[C@@H](Cc1c[nH]cn1)C(=O)N[C@@H](CCC(N)=O)C(=O)N[C@@H](CC(=O)O)C(=O)N[C@@H](CC(C)C)C(=O)N[C@H](C(N)=O)CSC3
In assay [3], B3 came in with a Ki of 0.97 nM.

B4: 3B2 (peptide)
peptide: ACFKNCRVNCA
modifications: linker 2-6-10 via TBMB
notes: also called PK119
Turning to B4, in assay [4], the Ki is 9 nM.

B5: 06-94 (peptide)
peptide: ACFKQCRVNCA
modifications: linker 2-6-10 via TBMB
notes: also called PK118
In assay [4], B5 showed an inhibition constant Ki of 0.7 nM.

B6: Ac-(06-34-18) Dpg1 (peptide)
peptide: Ac-C[Dpg]WPARCLHQDLC-NH2
modifications: linker 1-7-13 via TBMB
SMILES: CCCC1(CCC)NC(=O)[C@@H](NC(C)=O)CSCc2cc3cc(c2)CSC[C@H](NC(=O)[C@H](CCCNC(=N)N)NC(=O)[C@H](C)NC(=O)[C@@H]2CCCN2C(=O)[C@H](Cc2c[nH]c4ccccc24)NC1=O)C(=O)N[C@@H](CC(C)C)C(=O)N[C@@H](Cc1c[nH]cn1)C(=O)N[C@@H](CCC(N)=O)C(=O)N[C@@H](CC(=O)O)C(=O)N[C@@H](CC(C)C)C(=O)N[C@H](C(N)=O)CSC3
In assay [5], B6 gave a Ki of 1.09 nM.

B7: 06-64 (3x3 peptide of Table 3) (peptide)
peptide: ACFNKCRVNCA
modifications: linker 2-6-10 via TBMB; not fully specified (N-terminus, C-terminus)
notes: also called PK121
For B7, the Ki in assay [4] came to 4.8 nM.

B8: 06-71 (peptide)
peptide: ACFYKCRVNCA
modifications: linker 2-6-10 via TBMB; not fully specified (N-terminus, C-terminus)
notes: also called PK120
Turning to B8, the Ki in assay [4] was determined as 15.2 nM.

B9: Ac-(06-34-18) Cys2ToPen2 (peptide)
peptide: Ac-CSWPAR[Pen]LHQDLC-NH2
modifications: linker 1-7-13 via TBMB
SMILES: CC(=O)N[C@H]1CSCc2cc3cc(c2)CSC(C)(C)[C@H](NC(=O)[C@H](CCCNC(=N)N)NC(=O)[C@H](C)NC(=O)[C@@H]2CCCN2C(=O)[C@H](Cc2c[nH]c4ccccc24)NC(=O)[C@H](CO)NC1=O)C(=O)N[C@@H](CC(C)C)C(=O)N[C@@H](Cc1c[nH]cn1)C(=O)N[C@@H](CCC(N)=O)C(=O)N[C@@H](CC(=O)O)C(=O)N[C@@H](CC(C)C)C(=O)N[C@H](C(N)=O)CSC3
In assay [5], B9 registered a Ki of 2160 nM.

B10: Ac-(06-34-18) D-Cys2 (peptide)
peptide: Ac-CSWPAR[dC]LHQDLC-NH2
modifications: linker 1-7-13 via TBMB
SMILES: CC(=O)N[C@H]1CSCc2cc3cc(c2)CSC[C@@H](NC(=O)[C@H](CCCNC(=N)N)NC(=O)[C@H](C)NC(=O)[C@@H]2CCCN2C(=O)[C@H](Cc2c[nH]c4ccccc24)NC(=O)[C@H](CO)NC1=O)C(=O)N[C@@H](CC(C)C)C(=O)N[C@@H](Cc1c[nH]cn1)C(=O)N[C@@H](CCC(N)=O)C(=O)N[C@@H](CC(=O)O)C(=O)N[C@@H](CC(C)C)C(=O)N[C@H](C(N)=O)CSC3
For B10, in assay [1], the affinity, expressed as Ki, was 234 nM.

B11: 3B9 (peptide)
peptide: ACFDPCRVICA
modifications: linker 2-6-10 via TBMB
notes: also called PK124
Turning to B11, affinity in assay [4] was put at a Ki of 90.8 nM.

B12: 3A3 (peptide)
peptide: ACFPKCRVACA
modifications: linker 2-6-10 via TBMB
notes: also called PK122
On to B12, for which, in assay [4], the Ki is 43.1 nM.

B13: Ac-(06-34-18) Aib4 (peptide)
peptide: Ac-CSWP[Aib]RCLHQDLC-NH2
modifications: linker 1-7-13 via TBMB
SMILES: CC(=O)N[C@H]1CSCc2cc3cc(c2)CSC[C@H](NC(=O)[C@H](CCCNC(=N)N)NC(=O)C(C)(C)NC(=O)[C@@H]2CCCN2C(=O)[C@H](Cc2c[nH]c4ccccc24)NC(=O)[C@H](CO)NC1=O)C(=O)N[C@@H](CC(C)C)C(=O)N[C@@H](Cc1c[nH]cn1)C(=O)N[C@@H](CCC(N)=O)C(=O)N[C@@H](CC(=O)O)C(=O)N[C@@H](CC(C)C)C(=O)N[C@H](C(N)=O)CSC3
As to B13, the Ki in assay [5] is 289 nM.

B14: Ac-(06-34-18) D-Pro3 (peptide)
peptide: Ac-CSW[dP]ARCLHQDLC-NH2
modifications: linker 1-7-13 via TBMB
SMILES: CC(=O)N[C@H]1CSCc2cc3cc(c2)CSC[C@H](NC(=O)[C@H](CCCNC(=N)N)NC(=O)[C@H](C)NC(=O)[C@H]2CCCN2C(=O)[C@H](Cc2c[nH]c4ccccc24)NC(=O)[C@H](CO)NC1=O)C(=O)N[C@@H](CC(C)C)C(=O)N[C@@H](Cc1c[nH]cn1)C(=O)N[C@@H](CCC(N)=O)C(=O)N[C@@H](CC(=O)O)C(=O)N[C@@H](CC(C)C)C(=O)N[C@H](C(N)=O)CSC3
B14 had a Ki in assay [1] of 680 nM.

B15: Ac-(06-34-18) β-Ala4 (peptide)
peptide: Ac-CSWP[βAla]RCLHQDLC-NH2
modifications: linker 1-7-13 via TBMB
SMILES: CC(=O)N[C@H]1CSCc2cc3cc(c2)CSC[C@H](NC(=O)[C@H](CCCNC(=N)N)NC(=O)CCNC(=O)[C@@H]2CCCN2C(=O)[C@H](Cc2c[nH]c4ccccc24)NC(=O)[C@H](CO)NC1=O)C(=O)N[C@@H](CC(C)C)C(=O)N[C@@H](Cc1c[nH]cn1)C(=O)N[C@@H](CCC(N)=O)C(=O)N[C@@H](CC(=O)O)C(=O)N[C@@H](CC(C)C)C(=O)N[C@H](C(N)=O)CSC3
With B15, the affinity in assay [5] corresponds to a Ki of 17400 nM.

B16: Ac-(06-34-18) D-Ala4 (peptide)
peptide: Ac-CSWP[dA]RCLHQDLC-NH2
modifications: linker 1-7-13 via TBMB
SMILES: CC(=O)N[C@H]1CSCc2cc3cc(c2)CSC[C@H](NC(=O)[C@H](CCCNC(=N)N)NC(=O)[C@@H](C)NC(=O)[C@@H]2CCCN2C(=O)[C@H](Cc2c[nH]c4ccccc24)NC(=O)[C@H](CO)NC1=O)C(=O)N[C@@H](CC(C)C)C(=O)N[C@@H](Cc1c[nH]cn1)C(=O)N[C@@H](CCC(N)=O)C(=O)N[C@@H](CC(=O)O)C(=O)N[C@@H](CC(C)C)C(=O)N[C@H](C(N)=O)CSC3
For the molecule B16, in assay [1], the Ki worked out at 1200 nM. For the same molecule, the “fold reduction of affinity against Ac-06-34-18(TMB)-NH2” value in assay [2] came to 7000 fold.

B17: Ac-(06-34-18) Aze3 HomoArg5 (peptide)
peptide: Ac-CSW[Aze]A[hArg]CLHQDLC-NH2
modifications: linker 1-7-13 via TBMB
SMILES: CC(=O)N[C@H]1CSCc2cc3cc(c2)CSC[C@H](NC(=O)[C@H](CCCCNC(=N)N)NC(=O)[C@H](C)NC(=O)[C@@H]2CCN2C(=O)[C@H](Cc2c[nH]c4ccccc24)NC(=O)[C@H](CO)NC1=O)C(=O)N[C@@H](CC(C)C)C(=O)N[C@@H](Cc1c[nH]cn1)C(=O)N[C@@H](CCC(N)=O)C(=O)N[C@@H](CC(=O)O)C(=O)N[C@@H](CC(C)C)C(=O)N[C@H](C(N)=O)CSC3
In assay [6], B17 gave an inhibition constant (Ki) of 0.14 nM.

B18: Ac-(06-34-18) Aze3 4GuanPhe5 (peptide)
peptide: Ac-CSW[Aze]A[Phe(4-guanidino)]CLHQDLC-NH2
modifications: linker 1-7-13 via TBMB
SMILES: CC(=O)N[C@H]1CSCc2cc3cc(c2)CSC[C@H](NC(=O)[C@H](Cc2ccc(NC(=N)N)cc2)NC(=O)[C@H](C)NC(=O)[C@@H]2CCN2C(=O)[C@H](Cc2c[nH]c4ccccc24)NC(=O)[C@H](CO)NC1=O)C(=O)N[C@@H](CC(C)C)C(=O)N[C@@H](Cc1c[nH]cn1)C(=O)N[C@@H](CCC(N)=O)C(=O)N[C@@H](CC(=O)O)C(=O)N[C@@H](CC(C)C)C(=O)N[C@H](C(N)=O)CSC3
B18 showed a Ki in assay [6] of 0.17 nM.

B19: Ac-(06-34-18) Aba4 (peptide)
peptide: Ac-CSWP[Abu]RCLHQDLC-NH2
modifications: linker 1-7-13 via TBMB
SMILES: CC[C@@H]1NC(=O)[C@@H]2CCCN2C(=O)[C@H](Cc2c[nH]c3ccccc23)NC(=O)[C@H](CO)NC(=O)[C@@H](NC(C)=O)CSCc2cc3cc(c2)CSC[C@H](NC(=O)[C@H](CCCNC(=N)N)NC1=O)C(=O)N[C@@H](CC(C)C)C(=O)N[C@@H](Cc1c[nH]cn1)C(=O)N[C@@H](CCC(N)=O)C(=O)N[C@@H](CC(=O)O)C(=O)N[C@@H](CC(C)C)C(=O)N[C@H](C(N)=O)CSC3
In the case of B19, the Ki in assay [5] came to 0.07 nM.
